From patent US20230256092A1, “COMBINED USE OF ANTI-CCR8 ANTIBODY AND CHEMOTHERAPEUTIC AGENT” (Shionogi & Co., Ltd., priority 2020, published 2023)
One block for each molecule: values may come before it.

Experiments:
mouse CCR8 = molecular target: T1, mouse CCR8 (Mus musculus, UniProt P56484); assay: Antigen-binding test on transiently expressing Expi293 cells; set-up: key: an antibody having significantly reduced binding activity was indicated as A; an antibody having binding activity of the detection limit or less was indicated as x; The blank column means that it exhibits the same binding activity as the wild-type human CCR8 (hCCR8); settings: 5, 0.5 and 0.05 ug/mL, in comparison to wild-type hCCR8
T1 construct: expressed in transfected cells; host or cells: Expi293 cells, pcDNA 3.4 vector, transient
T1 sequence (P56484 1-353): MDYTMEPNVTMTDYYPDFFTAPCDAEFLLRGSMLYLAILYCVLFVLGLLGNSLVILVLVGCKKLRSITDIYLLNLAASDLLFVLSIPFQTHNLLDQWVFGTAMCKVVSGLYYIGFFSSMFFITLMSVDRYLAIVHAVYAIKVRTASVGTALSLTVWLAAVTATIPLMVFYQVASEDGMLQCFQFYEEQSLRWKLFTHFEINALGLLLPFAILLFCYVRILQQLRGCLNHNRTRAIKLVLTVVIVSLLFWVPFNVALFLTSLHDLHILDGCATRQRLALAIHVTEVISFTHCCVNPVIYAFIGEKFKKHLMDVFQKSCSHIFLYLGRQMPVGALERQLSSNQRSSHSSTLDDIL
Source text: (§1) The gene encoding the full length of human CCR8 (UniProtKB/Swiss-Prot: P51685, SEQ ID NO: 1), the gene encoding the full length of human CCR4 (UniProtKB/Swiss-Prot: P51679, SEQ ID NO: 48) and the gene encoding the full length of mouse CCR8 (UniProtKB/Swiss-Prot: P56484, SEQ ID NO: 39) were cloned into pcDNA 3.4 vectors, respectively. These vectors were used for transfection to produce Expi293 cells transiently expressing human CCR8, human CCR4, or mouse CCR8. These cells were reacted with a dilution series of the purified antibodies of each clone, and the binding properties thereof were evaluated by detection with Alexa488-labeled anti-mouse IgG antibody (manufactured by Thermo Fisher Scientific). As a result, every antibody bound to human CCR8, but not to human CCR4 and mouse CCR8 at all.

human CCR4 = molecular target: T2, human CCR4 (Homo sapiens, UniProt P51679); assay: as above; set-up: key: an antibody having significantly reduced binding activity was indicated as A; an antibody having binding activity of the detection limit or less was indicated as x; The blank column means that it exhibits the same binding activity as the wild-type human CCR8 (hCCR8); settings: 5, 0.5 and 0.05 ug/mL, in comparison to wild-type hCCR8
T2 construct: expressed in transfected cells; host or cells: Expi293 cells, pcDNA 3.4 vector, transient
T2 sequence (P51679 1-360): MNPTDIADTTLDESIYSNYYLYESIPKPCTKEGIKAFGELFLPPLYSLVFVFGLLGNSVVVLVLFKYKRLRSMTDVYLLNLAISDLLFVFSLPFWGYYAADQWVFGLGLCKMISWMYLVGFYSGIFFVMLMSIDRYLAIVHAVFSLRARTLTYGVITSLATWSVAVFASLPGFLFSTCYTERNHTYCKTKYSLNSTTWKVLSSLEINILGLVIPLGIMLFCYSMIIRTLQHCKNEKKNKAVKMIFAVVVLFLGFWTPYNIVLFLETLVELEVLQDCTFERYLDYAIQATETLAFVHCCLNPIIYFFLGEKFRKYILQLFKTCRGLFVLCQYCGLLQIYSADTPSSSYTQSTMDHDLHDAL
Source text: as §1

loop2 hCCR4-hCCR8 = molecular target: T3, loop2 hCCR4-hCCR8 (Homo sapiens, UniProt P51685, A175Y/D178R/F186K/F197L/F200L/G179N/I196V/K193T/K201E/L181T/L192T/M202I/N188S/N199S/Q173T/Q182Y/Q189L/Q190N/S176T/S185T/T191S/T198S/V174C/V180H/Y172S/Y184K); assay: Antigen-binding test, chimera; settings: 5, 0.5 and 0.05 ug/mL, in comparison to wild-type hCCR8
T3 construct: expressed in transfected cells; host or cells: Expi293 cells (method similar to that for the wild type)

hCCR8 (K35A) = molecular target: T4, hCCR8 (K35A) (Homo sapiens, UniProt P51685, K35A); assay: Antigen-binding test, human CCR8 point mutant; set-up: key: an antibody having significantly reduced binding activity was indicated as A; an antibody having binding activity of the detection limit or less was indicated as x; The blank column means that it exhibits the same binding activity as the wild-type human CCR8 (hCCR8); settings: in comparison to wild-type hCCR8
T4 construct: expressed in transfected cells; host or cells: Expi293 cells (method similar to that for the wild type)
Source text: (§2) Further, to analyze in more detail the N-terminal region that is an epitope region common to all clones having strong neutralization, the human CCR8 point mutants shown in Table 2 were produced. […] It is thus considered that the neutralizing antibodies recognize Y at position 17. In addition, although clone No. 8F7 is only shown in Table 2, plural other neutralizing antibodies had reduced binding activity to the mutant in which I at position 20 of human CCR8 is substituted with A (hCCR8 (I20A)). It is thus considered that some neutralizing antibodies have stereo-structural recognition to bind to isoleucine at position 20.

loop1 hCCR4-hCCR8 = molecular target: T5, loop1 hCCR4-hCCR8 (Homo sapiens, UniProt P51685, L95A/L96A/M105L/T103L/V104G); assay: Antigen-binding test, chimera; settings: 5, 0.5 and 0.05 ug/mL, in comparison to wild-type hCCR8
T5 construct: expressed in transfected cells; host or cells: Expi293 cells (method similar to that for the wild type)

hCCR8 (T11A) = molecular target: T6, hCCR8 (T11A) (Homo sapiens, UniProt P51685, T11A); assay: Antigen-binding test, human CCR8 point mutant; settings: in comparison to wild-type hCCR8
T6 construct: expressed in transfected cells; host or cells: Expi293 cells (method similar to that for the wild type)
Source text: as §2

hCCR8 (L5A) = molecular target: T7, hCCR8 (L5A) (Homo sapiens, UniProt P51685, L5A); assay: Antigen-binding test, human CCR8 point mutant; settings: in comparison to wild-type hCCR8
T7 construct: expressed in transfected cells; host or cells: Expi293 cells (method similar to that for the wild type)

[1] = test system: colon cancer-derived Colon26 cells; assay: Example 11: hCCR8-KI (KI/KI) mice inoculated with Colon26 cells, oxaliplatin combination (Part 2); format: in vivo, mouse; settings: as Example 6; 2-7B part: oxaliplatin 10, 14, 17 days, antibody 14, 17 days; 19D7 part: oxaliplatin 10, 14 days, antibody 14 days; combinations from 10 days; Student's T one-sided
Experimental: The back of each hCCR8-KI (KI/KI) mouse (12 weeks old, female) prepared in Test Example 10 was intracutaneously inoculated with 3.5×10^5 colon cancer-derived Colon26 cells (50 uL).
To an oxaliplatin single administration group, saline was intravenously administered 5 days after tumor inoculation, and oxaliplatin (trade name: ELPLAT, Yakult Honsha Company, Limited) at 5 mg/kg body weight was intravenously administered 3 hours after the administration of the saline (N=10). To an anti-mouse CCR8 antibody and oxaliplatin combined administration group, an anti-human CCR8 antibody at 15 mg/kg body weight was intravenously administered 5 days after tumor inoculation, and oxaliplatin at 5 mg/kg body weight was intravenously administered 3 hours after the administration of the anti-mouse CCR8 antibody (N=10). To a control group, saline was intravenously administered 5 days after tumor inoculation, and saline was intravenously administered 3 hours after the administration of the saline (N=10). […] Tumor volumes were measured every 1 to 3 days from 4 days after tumor inoculation (a day before antibody administration). The tumor volume (mm^3) was measured in long diameter (mm)×short diameter (mm)×short diameter (mm)/2, and a significant difference test based on a Mann-Whitney U method (significance level: P<0.05) was conducted. […]

human CCR8 = molecular target: T8, human CCR8 (Homo sapiens, UniProt P51685); assay: Neutralizing activity: inhibition of Ca2+ influx by 200 nM hCCL1 in human CCR8 expressing 293 cells (FLIPR), Test Example 6; format: cell-based; settings: Table 9; WT IC50/mutant IC50; humanized 10A11 heavy chain CDR mutants, IGKV4-1/IGHV3-73
T8 construct: expressed in transfected cells; host or cells: 293 cells
Experimental: The antibody dilution diluted with a medium was added to human CCR8 expressing 293 cells in which a Ca^2+ indicator was incorporated beforehand, and Ca^2+ influx by addition of 200 nM hCCL1 (manufactured by BioLegend) was measured with FLIPR. […] The evaluation was performed at least three times, and IC50 was expressed as average±SD.

B3: 2-7B: rat anti-human CCR8 antibody; light chain SEQ ID NO: 37, heavy chain SEQ ID NO: 38 (antibody, V domains shown)
VH: EVQLVESDGGLVQPGRSLKLSCAASGFTFSDYYMAWVRQAPTKGLEWVATITYDVYSTYYRDSVKGRFTISRDNAKSTLYLQMDSLRSEDTATYYCARHGGDGYNSGNWFAYWGQGTLVTVSS
VL: DIVLTQSPALAVSLGQRATISCRASQSVSISRYNIMHWYQQKPGQQPKLLIYRASNLASGIPARFSGSGSGTDFTLTINPVQADDIATYYCQQSRESPPTFGGGTKLELKR
modifications: 2-7B VH; 2-7B VL
tumor volume as compared to the control group [1]: no significant decrease

B5: h10A11 (IGKV4-1/IGHV3-73 A33V): humanized 10A11 heavy chain CDR point mutant (antibody, V domains shown)
VL: DIVMTQSPDSLAVSLGERATINCRSSKSLLHSNGNTYLYWYQQKPGQPPKLLIYRMSNLASGVPDRFSGSGSGTDFTLTISSLQAEDVAVYYCMQHLEYPLTFGQGTKLEIKRT
VH: EVQLVESGGGLVQPGGSLKLSCAASGFAFNTYVLYWVRQASGKGLEWVGRIRSKSNNYATYYADSVKDRFTISRDDSKNTAYLQMNSLKTEDTAVYYCTRARFYYSDYGYAMDYWGQGTLVTVSS
IC50 ratio (human CCR8): n.d. (The n.d. (=not detectable) indicates that the IC50 value of the mutant is 10 nM or more)

B7: h10A11 (IGKV4-1/IGHV3-73 Y35F): humanized 10A11 heavy chain CDR point mutant (antibody, V domains shown)
VL: DIVMTQSPDSLAVSLGERATINCRSSKSLLHSNGNTYLYWYQQKPGQPPKLLIYRMSNLASGVPDRFSGSGSGTDFTLTISSLQAEDVAVYYCMQHLEYPLTFGQGTKLEIKRT
VH: EVQLVESGGGLVQPGGSLKLSCAASGFAFNTYALFWVRQASGKGLEWVGRIRSKSNNYATYYADSVKDRFTISRDDSKNTAYLQMNSLKTEDTAVYYCTRARFYYSDYGYAMDYWGQGTLVTVSS
IC50 ratio (human CCR8): n.d. (The n.d. (=not detectable) indicates that the IC50 value of the mutant is 10 nM or more)

The next lines start with the values.

binding activity, mCCR8 (mouse CCR8): x
binding activity, hCCR4 (human CCR4): x
B1: 2C7: mouse anti-human CCR8 neutralizing antibody; light chain SEQ ID NO: 35, heavy chain SEQ ID NO: 36 (antibody, V domains shown)
VH: QVQLKQSGPSLVQPSQSLSITCTVSGFSLTAYGVHWIRQSPGKGQEWLGVIWRGGSTDYNAAFMSRLTITKDNSKSQVFFKMNSLQADDTAIYYCAKKGGSYAMDYWGQGTSVTVSS
VL: DVVLTQTPLSLPVSLGGQASISCRSSQSLVHSNGNTYLHWYLQKPGQSPKLLIYKVSNRFSGVPDRFSGSGSGTDFTLKISRVEAEDLGVYFCSQSTQVPLTFGAGTKLELKR
modifications: 2C7 VH; 2C7 VL

binding activity, loop2 hCCR4-hCCR8 (loop2 hCCR4-hCCR8): Δ
binding activity, hCCR8 (K35A) (hCCR8 (K35A)): x
binding activity, mCCR8 (mouse CCR8): x
binding activity, hCCR4 (human CCR4): x
binding activity, loop1 hCCR4-hCCR8 (loop1 hCCR4-hCCR8): Δ
binding activity, hCCR8 (T11A) (hCCR8 (T11A)): Δ
binding activity, hCCR8 (L5A) (hCCR8 (L5A)): Δ
B2: 1H4: mouse anti-human CCR8 neutralizing antibody; light chain SEQ ID NO: 29, heavy chain SEQ ID NO: 30 (antibody, V domains shown)
VH: EVQLVESGGRLVQPKGSLKLSCAASGFTFNTYAMYWIRQAPGKGLEWVARIRSKSNNYATYYADSVKDRFTISRDDSQSMLYLQMNNLKTEDTAMYYCVRARFYYSDYGYAMDYWGQGTSVTVSS
VL: DIVMTQAAPSVPVTPGESVSISCRSSKSLLHSNGNTYLYWFLQRPGQSPQLLIYRMSNLASGVPDRFSASGSGTAFTLRISRVEAEDVGVYYCMQHLEYPLTFGAGTKLELKR
modifications: 1H4 VH; 1H4 VL

IC50 ratio (human CCR8): 0.44
B4: h10A11 (IGKV4-1/IGHV3-73 Y32F): humanized 10A11 heavy chain CDR point mutant (antibody, V domains shown)
VL: DIVMTQSPDSLAVSLGERATINCRSSKSLLHSNGNTYLYWYQQKPGQPPKLLIYRMSNLASGVPDRFSGSGSGTDFTLTISSLQAEDVAVYYCMQHLEYPLTFGQGTKLEIKRT
VH: EVQLVESGGGLVQPGGSLKLSCAASGFAFNTFALYWVRQASGKGLEWVGRIRSKSNNYATYYADSVKDRFTISRDDSKNTAYLQMNSLKTEDTAVYYCTRARFYYSDYGYAMDYWGQGTLVTVSS

IC50 ratio (human CCR8): 0.43
B6: h10A11 (IGKV4-1/IGHV3-73 L34I): humanized 10A11 heavy chain CDR point mutant (antibody, V domains shown)
VL: DIVMTQSPDSLAVSLGERATINCRSSKSLLHSNGNTYLYWYQQKPGQPPKLLIYRMSNLASGVPDRFSGSGSGTDFTLTISSLQAEDVAVYYCMQHLEYPLTFGQGTKLEIKRT
VH: EVQLVESGGGLVQPGGSLKLSCAASGFAFNTYAIYWVRQASGKGLEWVGRIRSKSNNYATYYADSVKDRFTISRDDSKNTAYLQMNSLKTEDTAVYYCTRARFYYSDYGYAMDYWGQGTLVTVSS
